# Source: patent US20210395319A1 (OLIGOMERIX, published 2021)
# B1: N-terminal portion of tau protein (amino acids 1-184) (other, UniProt P10636-8 1-184, looked up)
# chain: MAEPRQEFEVMEDHAGTYGLGDRKDQGGYTMHQDQEGDTDAGLKESPLQTPTEDGSEEPGSETSDAKSTPTAEDVTAPLVDEGAPGKQAAAQPHTEIPEGTTAEEAGIGDTPSLEDEAAGHVTQARMVSKSKDGTGSDDKKAKGADGKTKIATPRGAAPPGQKGQANATRIPAKTPPAPKTPPS
# notes: range 1-184; Printed mass 21.5 kDa, charge approximately -7.2; also called tau fragment (21.5 KD) that encompasses the N-terminus; N-terminal (21.5 kDa)
# Target: the molecule itself
# Assay: self-association: overnight incubation at 37 °C in pH neutral buffer, SDS-PAGE on a 4-20% gradient gel
# Experimental: Protein preparations of the N-terminal (21.5 kDa) and C-terminal (18.5 kDa) were incubated at 4 μM concentration in pH neutral buffer and incubated overnight at 37° C.
protein,measurement,value
B1,binding result,no binding (tested: 4 µM)
